B4: VEGF-B (ligand, UniProt P49765-2 22-188, looked up)
chain: PVSQPDAPGHQRKVVSWIDVYTRATCQPREVVVPLTVELMGTVAKQLVPSCVTVQRCGGCCPDDGLECVPTGQHQVRMQILMIRYPSSQLGEMSLEEHSQCECRPKKKDSAVKPDSPRPLCPRCTQHHQRPDPRTCRCRCRRRSFLRCQGRGLELNPDTCRCRKLRR

Assays:
[1] = target: T1, nrgbx (UniProt Q02297-6 2-246, limits assumed); test: binding test, fragment as ligand, growth factor in 0.65 M NaCl
T1 construct: also called neuregulin
T1 sequence (looked up): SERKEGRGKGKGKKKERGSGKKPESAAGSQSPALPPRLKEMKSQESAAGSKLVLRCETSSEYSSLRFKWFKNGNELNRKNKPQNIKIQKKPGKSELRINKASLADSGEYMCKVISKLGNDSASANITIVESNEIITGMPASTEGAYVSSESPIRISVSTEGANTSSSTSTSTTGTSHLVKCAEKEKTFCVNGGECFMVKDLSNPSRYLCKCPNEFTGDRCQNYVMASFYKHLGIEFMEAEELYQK

[2] = target: B4; test: as above
[3] = target: T2, bFGF (UniProt P09038 143-288, limits assumed); test: as above
T2 construct: also called basic fibroblast growth factor

[4] = target: T3, PDGF AB (UniProt P04085 87-211; P01127 82-190, limits assumed); test: as above
T3 construct: Heterodimer by its name

[5] = target: T4, IGF-1 (UniProt P05019 49-118); test: as above
T4 construct: Biotinylated IGF-1 is written as the same molecule; also called biotinylated IGF-1; IGF-1-bio

[6] = target: IGF-2 (UniProt P01344 25-91); test: as above
[7] = target: T4, IGF-1; test: biotinylated IGF-1 ELISA on Fc-captured chimera, after overnight in PBS at 37 C, against the 4 C PBS control; experiment 4-81
Procedure: (§1) Plates were coated with goat anti-human Fc antibody, blocked and then incubated with chimera as in the Fc ELISA. Biotinylated IGF-1 (GroPep) or VEGF-Biotin (R&D Systems VEGF biotinylated with sulfo-NHS-LC-biotin as per instructions (Pierce) was added for 2 hours followed by streptavidin-HRP (Jackson Immunoresearch) for 30 minutes. Chromogenic development with tetramethyl benzidine was performed as described above.
(§2) To test the stability of the present chimeras, some purified chimeras (see, Table 4) were incubated with PBS or a conditioned medium from the MCF-7 cell line overnight at 37° C. and PBS overnight at 4° C. The IGF-1 binding and VEGF binding were measured using the biotinylated IGF-1 and VEGF.

[8] = target: T4, IGF-1; test: Biacore SPR; experiment 4-79
Procedure: (§3) Biacore binding was performed at David Myszka's laboratory at the University of Utah or at the Genomic Research Center at Academia Sinica. Surfaces of binding protein chimera were made via chemical immobilization on a CM4 chip using standard amine coupling chemistry. […] Excess surface carboxyl activated sites on all four flow cells was blocked using the doubly positively charged species ethylenediamine. Binding experiments (but not immobilizations) in HBS-P (10 mM HEPES pH 7.4, 150 mM NaCl, 0.05% P20), The HBS-P was supplemented with BSA at 0.2 mg/mL, or HBS-P was supplemented with 500 mM NaCl (650 mM NaCl, final concentration). Analytes were also reconstituted in the corresponding buffer. All experiments were performed at 25° C. 1/150 dilutions of phosphoric acid were used to regenerate IGFBP3-Fc surfaces and a sequence of 3 M MgCl₂ followed by 5 M GuCl was used to regenerate surfaces immobilized with growth factor. Dissociation constants reported below used immobilized binding protein unless noted. Differences between binding constants may be expected between growth factor immobilization and chimera immobilization.

[9] = target: T4, IGF-1; test: biotinylated IGF-1 ELISA on Fc-captured chimera, after overnight in MCF-7 conditioned medium at 37 C, against the 4 C PBS control; experiment 4-81
Procedure: as §1, §2

[10] = target: T4, IGF-1; test: biotinylated IGF-1 ELISA on Fc-captured chimera, 4 C PBS control (the reference); experiment 4-81
Procedure: as §1, §2

[11] = target: T2, bFGF; test: Biacore SPR, immobilised bFGF; experiment 4-79
Procedure: as §3

[12] = target: T5, wild-type IGFBP3 (human, UniProt P17936 28-291); test: summary of the foregoing examples; method not given
T5 construct: also called human IGFBP3

[13] = target: T4, IGF-1; test: biotinylated IGF-1 ELISA on Fc-captured chimera, 4 C PBS control (the reference); experiment 3-192
Procedure: as §1, §2

[14] = target: T4, IGF-1; test: biotinylated IGF-1 ELISA on Fc-captured chimera, after overnight in MCF-7 conditioned medium at 37 C, against the 4 C PBS control; experiment 3-192
Procedure: as §1, §2

[15] = target: T4, IGF-1; test: biotinylated IGF-1 ELISA on Fc-captured chimera, after overnight in PBS at 37 C, against the 4 C PBS control; experiment 3-192
Procedure: as §1, §2

[16] = target: T1, nrgbx; test: cell-based or functional assay
[17] = target: T4, IGF-1; test: cell-based or functional assay

T4 sequence (P05019 49-118 limits assumed): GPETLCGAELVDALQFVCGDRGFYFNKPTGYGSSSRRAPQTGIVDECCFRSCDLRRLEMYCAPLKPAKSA
T3 sequence (P01127 82-190 limits assumed, chain 2 of 2, other chains not shown): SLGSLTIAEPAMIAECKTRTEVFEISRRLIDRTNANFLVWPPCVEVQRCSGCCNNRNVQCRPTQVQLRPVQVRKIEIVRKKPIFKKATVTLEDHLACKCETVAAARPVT
T2 sequence (P09038 143-288 limits assumed): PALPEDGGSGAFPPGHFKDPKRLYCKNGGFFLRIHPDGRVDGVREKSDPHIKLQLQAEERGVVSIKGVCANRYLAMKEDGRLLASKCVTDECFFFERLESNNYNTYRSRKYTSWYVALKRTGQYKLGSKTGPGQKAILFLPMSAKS
Chain of IGF-2 (P01344 25-91 limits assumed): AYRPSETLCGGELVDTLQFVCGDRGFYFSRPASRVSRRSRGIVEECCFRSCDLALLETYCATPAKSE

B1: 4142 (other)
chain: GASSAGLGPVVRCEPCDARALAQCAPPPAVCAELVREPGCGCCLTCALSEGQPCGIYTERCGSGLRCQPSPDEARPLQALLDGRGLCVNASAVSVECPPCPAPPVAGPSVFLFPPKPKDQLMISRTPEVTCVVVDVSHEDPEVKFNWYVDGVEVHNAKTKPREEQYNSTYRVVSVLTVLHQDWLNGKEYKCKVSNKGLPSSIEKTISKAKGQPREPQVYTLPPSREEMTKNQVSLTCLVKGFYPSDIAVEWESNGQPENNYKTTPPVLDSDGSFFLYSKLTVDKSRWQQGNVFSCSVMHEGLHNHYTQKSLSLSPGK
notes: Fragment of BP3; also called ligand 4142; N-terminus only
**Q.** Does B1 bind [1]?
**A.** Result: no binding

**Q.** Does B1 bind [2]?
**A.** Result: no binding

**Q.** Does B1 bind [3]?
**A.** Result: no binding

**Q.** Does B1 bind [4]?
**A.** Result: no binding

**Q.** Does B1 bind [5]?
**A.** Result: binds

**Q.** Does B1 bind [6]?
**A.** Result: binds

B2: 4382 (other)
chain: GASSAVNASAVSRLRAYLLPAPPAPGNASESEEDRSAGSVESPSVSSTHRVSDPKFHPLHSKIIIIKKGHAKDSQRYKVDYESQSTDTQNFSSESKREVECPPCPAPPVAGPSVFLFPPKPKDQLMISRTPEVTCVVVDVSHEDPEVKFNWYVDGVEVHNAKTKPREEQYNSTYRVVSVLTVLHQDWLNGKEYKCKVSNKGLPSSIEKTISKAKGQPREPQVYTLPPSREEMTKNQVSLTCLVKGFYPSDIAVEWESNGQPENNYKTTPPVLDSDGSFFLYSKLTVDKSRWQQGNVFSCSVMHEGLHNHYTQKSLSLSPGK
notes: Fragment of BP3; also called ligand 4382; linker region alone
**Q.** Does B2 bind [1]?
**A.** Result: no binding

**Q.** Does B2 bind [2]?
**A.** Result: no binding

**Q.** Does B2 bind [3]?
**A.** Result: no binding

**Q.** Does B2 bind [4]?
**A.** Result: no binding

B3: IGFBP3-Fc-2 (Fc fusion)
chain: GASSAGLGPVVRCEPCDARALAQCAPPPAVCAELVREPGCGCCLTCALSEGQPCGIYTERCGSGLRCQPSPDEARPLQALLDGRGLCVNASAVSRPAPPAPGNASESEEDRSAGSVESPSVSSTHRVSDPKFHPKGHAKDSQRYKVDYESQSTDTQNFSSESKRETEYGPCRREMEDTLNHLKFLNVLSPRGVHIPNCDKKGFYKKKQCRPSKGRKRGFCWCVDKYGQPLPGYTTKGKEDVHCYSMQSKVECPPCPAPPVAGPSVFLFPPKPKDQLMISRTPEVTCVVVDVSHEDPEVKFNWYVDGVEVHNAKTKPREEQYNSTYRVVSVLTVLHQDWLNGKEYKCKVSNKGLPSSIEKTISKAKGQPREPQVYTLPPSREEMTKNQVSLTCLVKGFYPSDIAVEWESNGQPENNYKTTPPVLDSDGSFFLYSKLTVDKSRWQQGNVFSCSVMHEGLHNHYTQKSLSLSPGK
notes: IGFBP3 with IGFBP3 linker deletion 2, fused to Fc; dimeric; also called 3(del2)3; 3(del2)3Fc
**Q.** How did the “IGF-1 binding remaining over controls” value [7] turn out when B3 was run?
**A.** The value was 72%.

**Q.** What about the Kd [8] of the same binder?
**A.** The Kd was 0.32 nM.

**Q.** What about the “IGF-1 binding remaining over controls” value [9] of the same binder?
**A.** Its value is 43%.

**Q.** What about the “IGF-1 binding remaining over controls” value [10] of the same binder?
**A.** Its value is 100%.

**Q.** And the Kd [11]?
**A.** Its Kd is 4.32 nM.

**Q.** Does B4 bind [12]?
**A.** Result: binds

B5: IGFBP3-GS16-VEGF-Fc (Fc fusion)
chain: GASSAGLGPVVRCEPCDARALAQCAPPPAVCAELVREPGCGCCLTCALSEGQPCGIYTERCGSGLRCQPSPDEARPLQALLDGRGLCVNASAVSKGHAKDSQRYKVDYESQSTDTQNFSSESKRETEYGPCRREMEDTLNHLKFLNVLSPRGVHIPNCDKKGFYKKKQCRPSKGRKRGFCWCVDKYGQPLPGYTTKGKEDVHCYSMQSKGGGGSGGGGSGGGGSGIYIFISDTGRPFVEMYSEIPEIIHMTEGRELVIPCRVTSPNITVTLKKFPLDTLIPDGKRIIWDSRKGFIISNATYKEIGLLTCEATVNGHLYKTNYLTHRQGYRIYDVVLSPSHGIELSVGEKLVLNCTARTELNVGIDFNWEYPSSKHQHKKLVNRDLKTQSGSEMKKFLSTLTIDGVTRSDQGLYTCAASSGLMTKKNSTFVRVHEKVECPPCPAPPVAGPSVFLFPPKPKDQLMISRTPEVTCVVVDVSHEDPEVKFNWYVDGVEVHNAKTKPREEQYNSTYRVVSVLTVLHQDWLNGKEYKCKVSNKGLPSSIEKTISKAKGQPREPQVYTLPPSREEMTKNQVSLTCLVKGFYPSDIAVEWESNGQPENNYKTTPPVLDSDGSFFLYSKLTVDKSRWQQGNVFSCSVMHEGLHNHYTQKSLSLSPGK
notes: IGFBP3 with linker deletion 1 - GS 16 linker - v1v2 - Fc; dimeric; also called Chimera B; 3-t3-3-GS16-V1V2
**Q.** What does the source list for B5?
**A.** IGF-1 binding remaining over controls [13]: 100%; IGF-1 binding remaining over controls [14]: 82%; IGF-1 binding remaining over controls [15]: 167%

B6: Rantes (ligand, UniProt P13501 24-91, looked up)
chain: SPYSSDTTPCCFAYIARPLPRAHIKEYFYTSGKCSNPAVVFVTRKNRQVCANPEKKWVREYINSLEMS
notes: The excerpts show no construct or source
**Q.** Does B6 bind [12]?
**A.** Result: binds

B7: IGFBP3-Fc-3 (Fc fusion)
chain: GASSAGLGPVVRCEPCDARALAQCAPPPAVCAELVREPGCGCCLTCALSEGQPCGIYTERCGSGLRCQPSPDEARPLQALLDGRGLCVNASAVSRPAPPAPGNASESEEDRSAGSVESPSVSSTHRVSDPKFHPKGHAKVDYESQSTDTQNFSSESKRETEYGPCRREMEDTLNHLKFLNVLSPRGVHIPNCDKKGFYKKKQCRPSKGRKRGFCWCVDKYGQPLPGYTTKGKEDVHCYSMQSKVECPPCPAPPVAGPSVFLFPPKPKDQLMISRTPEVTCVVVDVSHEDPEVKFNWYVDGVEVHNAKTKPREEQYNSTYRVVSVLTVLHQDWLNGKEYKCKVSNKGLPSSIEKTISKAKGQPREPQVYTLPPSREEMTKNQVSLTCLVKGFYPSDIAVEWESNGQPENNYKTTPPVLDSDGSFFLYSKLTVDKSRWQQGNVFSCSVMHEGLHNHYTQKSLSLSPGK
notes: IGFBP3 with IGFBP3 linker deletion 3, fused to Fc; dimeric; also called 3(del3)3; 3(del3)3Fc
**Q.** Which results are given for B7?
**A.** IGF-1 binding remaining over controls [7]: 84%; Kd [8]: 0.371 nM; IGF-1 binding remaining over controls [9]: 49%; IGF-1 binding remaining over controls [10]: 100%; Kd [11]: 3.44 nM; IC50 in inhibiting neuregulin-induced proliferation [16]: 80 nM; EC50 in inhibiting IGF-1 induced proliferation of hep3B cells [17]: 21 nM

B8: 4141 (other)
chain: GASSAGLGPVVRCEPCDARALAQCAPPPAVCAELVREPGCGCCLTCALSEGQPCGIYTERCGSGLRCQPSPDEARPLQALLDGRGLCVNASAVSKGHAKDSQRYKVDYESQSTDTQNFSSESKRETEYVECPPCPAPPVAGPSVFLFPPKPKDQLMISRTPEVTCVVVDVSHEDPEVKFNWYVDGVEVHNAKTKPREEQYNSTYRVVSVLTVLHQDWLNGKEYKCKVSNKGLPSSIEKTISKAKGQPREPQVYTLPPSREEMTKNQVSLTCLVKGFYPSDIAVEWESNGQPENNYKTTPPVLDSDGSFFLYSKLTVDKSRWQQGNVFSCSVMHEGLHNHYTQKSLSLSPGK
notes: Fragment of BP3; also called N-terminus plus partial linker
**Q.** Which results are given for B8?
**A.** binding result [2]: binds; binding result [3]: binds; binding result [4]: binds; binding result [5]: binds; binding result [6]: binds

Source: US20190359666A1 (ACADEMIA SINICA, published 2019)
